System: UM-UC13 parental and ex vivo cells
Assay: Internalization assay (confocal microscopy)
Type: cell-based, human
Settings: ex vivo and in situ G0-G6 tumor cells
Protocol: UM-UC13 parental and ex vivo cells were seeded to cover slips and grown to 80% confluency. 100 nM rVAR2-V5 was incubated with the cells for 1 hour at 37° C. and 5% CO2. Cells were subsequently washed with PBS prior to fixation with 4% paraformaldehylde for 15 min at room temperature followed by permeabilization with 0.5% trition for 3 mins and blocked with 3% BSA for 30 mins. Cells were then incubated with primary Anti-V5 antibody from ThermoFischer (R960-25) according to manufacturer's instructions followed by 1 hour incubation with anti-mouse AlexaFluor488 secondary antibody from Invitrogen (A-21202). Cover slips were washed with PBS and mounted in mounting media containing DAPI and analyzed by laser-scanning confocal microscopy.

B1: rVAR2: ID1, DBL2X and ID2a domains of the full-length malarial VAR2CSA protein linked to a C-terminal V5 tag (protein)
chain: GHSDSGKYDPCEKKLPPYDDNDQWKCQQNSSDGSGKPENICVPPRRERLCTYNLENLKFDKIRDNNAFLADVLLTARNEGEKIVQNHPDTNSSNVCNALERSFADLADIIRGTDQWKGTNSNLEKNLKQMFAKIRENDKVLQDKYPKDQKYTKLREAWWNANRQKVWEVITCGARSNDLLIKRGWRTSGKSDRKKNFELCRKCGHYEKEVPTKLDYVPQFLRWLTEWIEDFYREKQNLIDDMERHREECTREDHKSKEGTSYCSTCKDKCKKYCECVKKWKTEWENQENKYKDLYEQNKNKTSQKNTSRYDDYVKDFFEKLEANYSSLENYIKGDPYFAEYATKLSFILNPSDANNPSGETANHNDEACNCNESGISSVGQAQTSGPSSNKTCITHSSIKTNKKKECKDVKLGVRENDKDLKICVIEDTSLSGVDNCCCQDLLGILQENCSDNKRGSSSNDSCDNKNQDECQKKLEKVFASLTNGYKCDKCKSGTSRSKKKWIWKKSSGNEEGLQEEYANTIGLPPRTQSLYLGNLPKLENVCEDVKDINFDTKEKFLAGCLIVSFHEGKNLKKRYPQNKNSGNKENLCKALEYSFADYGDLIKGTSIWDNEYTKDLELNLQNNFGKLFGKYIKKNNTAEQDTSYSSLDELRESWWNTNKKYIWTAMKHGAEMNITTCNADGSVTGSGSSCDDIPTIDLIPQYLRFLQEWVENFCEQRQAKVKDVITNCKSCKESGNKCKTECKTKCKDECEKYKKFIEACGTAGGGIGTAGSPWSKRWDQIYKRYSKHIEDAKRNRKAGTKNCGTSSTTNAAASTDENKCVQSDIDSFFKHLIDIGLTTPSSYLSNVLDDNICGADKAPWTTYTTYTTTEKCNKERDKSKSQSSDTLVVVNVPSPLGNTPYRYKYACQCKIPTNEETCDDRKEYMNQWSCGSARTMKRGYKNDNYELCKYNGVDVKPTTVRSNSSKLDSGRGELEGKPIPNPLLGLDSTRTGHHHHHH
  internalization of rVAR2 protein: retained internalization capacity
